# Measured values: article PMC3490468
# Several values for one entry are separate records, joined by “and”; a condition that tells them apart may be missing. Equal entries are not always repeated.
# Tests used:
# [1] = target: truncated portal protein cn3 (E25-Q456) of bacteriophage CNPH82 (bacteriophage CNPH82); assay: SEC-MALS; 60 ul of 0.5 mg/ml cn3 on a BioSep SEC-s3000 column; 20 mM Tris pH 7.5, 500 mM NaCl, 10 mM MgCl2; size of the oligomer in solution
# [2] = target: truncated portal protein cn3 (E25-Q456) of bacteriophage CNPH82 (bacteriophage CNPH82); assay: self-rotation function of X-ray diffraction data; crystal in space group C222(1), data to 4.2 A; MOLREP, resolution range 5-10 A, integration radius 87 A; structure not solved
substance,measurement,setting,value
truncated portal protein cn3 (E25-Q456) of bacteriophage CNPH82 (domain or fragment),stoichiometry N (subunits per oligomer),[1],12.9 and 13
same,stoichiometry N (subunits per oligomer),[2],13
